Results published in publication PMC2891831, “Insight into the Mechanisms of Adenovirus Capsid Disassembly from Studies of Defensin Neutralization” (PLoS Pathogens, 2010).

Test system: Ad5.eGFP
Test: Ad5.eGFP infection, eGFP-positive cells by flow cytometry
Type: cell-based, human adenovirus
Settings: 15 µM defensin, percent eGFP positive cells vs. no defensin, at least three independent experiments
Description: To gain further insight into the defensin-HAdV interaction, we assessed the requirement for two conserved structural elements on the anti-AdV activity of HD5. All defensins have three disulfide bonds (Figure 3A). […] The antibacterial properties of defensins, which are dependent upon protein-lipid interactions, are not uniformly conformation dependent [27]–[29]. […] In contrast, defensin-related chemokine activity, which relies on protein-protein interactions, is dependent on defensin conformation. We hypothesized that the defensin-capsid interaction for sensitive serotypes would likely be dependent upon defensin conformation, as this would be more typical for protein-protein interactions. […]
Figure 3 HD5 antiviral activity is structure dependent. […] C) Binding of Alexa Fluor 488-labeled HAdV-5 to cells was assessed after incubation with or without 20 µM HD5 or HD5-Abu and in competition with 100 nM 5FK or 16 FK. Data are the mean fold increase in geometric mean fluorescence compared to cells alone and are of at least 10,000 cells from each of three independent experiments ± SD.
To test the activity of HD5 derivates, Ad5.eGFP was incubated with 15 µM of HD5, HD5-Abu, or HD5-E14Q. Infectivity was assessed by enumerating eGFP-positive cells by flow cytometry as described.

B1: HD5-E14Q: HD5 containing a substitution of glutamine for glutamic acid 14, to disrupt the conserved salt bridge (peptide, UniProt Q01523 20-94, looked up, variant E14Q)
Defensin alpha 5: ESLQERADEATTQKQSGEDNQDLAISFAGNGLSALRTSGSQARATCYCRTGRCATRQSLSGVCEISGRLYRLCCR
modifications: Defensin-5
notes: HD5 containing a substitution of glutamine for glutamic acid 14, to disrupt the conserved salt bridge
  antiviral activity against Ad5.eGFP: no effect on antiviral activity
